Data on one molecule can be found in patent US20070036810A1, “Cyclic amp response element activator proteins and uses related thereto” (priority 2003, published 2007).

The assay addresses T1, ATF2-GAL4 fusion molecule (Homo sapiens, UniProt P15336).
T1 construct: host or cells: HLR cell line (5x GAL4 element-luciferase reporter)
As to the kind of experiment: In vivo kinase assay, ATF2-GAL4 fusion in HLR cells. Particulars: 40 hours after transfection. It is filed as cell-based. The protocol: For in vivo kinase assay, activation domains of CREB or ATF2 transcription factors fused with the yeast GAL4 DNA binding domain (1-147 Amino Acids) constructs are used (Stratagene, PathDetect In Vivo Signal Transduction Pathway trans-reporting Systems). The HLR cell line that contains a 5× GAL4 DNA binding element and TATA box driving luciferase reporter is used per manufacturer's protocol (Stratagene). 10^4 HLR cells are split into each well of 96 well tissue culture plates. After 16 hours, cells are transfected with 100 ng of Creb-GAL4 or ATF2-GAL4 fusion constructs, 30 ng of Renilla luciferase control plasmid together with 100 ng of pCMVSPORT6, pCMVSPORT-CREAP1, pFC-PKA or pFC-MEKK (Stratagene) activator plasmids respectively. Transfection is done with Fugene6 reagent (Roche Molecular Biochemicals, Basel, Switzerland) according to the manufacturers manual. Forty hours after transfection, a Dual-Glo Luciferase assay (Promega) is conducted using the manufacturer's protocol.
As CREAP1 strongly activates CRE promoter transcription, we next investigated whether CREAP1 works through the CREB pathway. […]

T1 sequence (P15336 with tags, fused parts or gaps limits assumed): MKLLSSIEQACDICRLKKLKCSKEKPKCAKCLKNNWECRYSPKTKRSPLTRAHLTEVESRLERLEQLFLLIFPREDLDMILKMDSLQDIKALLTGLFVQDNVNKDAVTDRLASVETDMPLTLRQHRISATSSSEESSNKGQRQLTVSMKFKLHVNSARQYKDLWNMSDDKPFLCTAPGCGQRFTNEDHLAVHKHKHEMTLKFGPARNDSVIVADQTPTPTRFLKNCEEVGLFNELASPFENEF

B1: CREAP1: human CRE activating protein 1, 650 amino acids, SEQ ID NO 2; expressed from pCMVSPORT-CREAP1 (protein)
chain: MATSNNPRKFSEKIALHNQKQAEETAAFEEVMKDLSLTRAARLQLQKSQYLQLGPSRGQYYGGSLPNVNQIGSGTMDLPFQPSGFLGEALAAAPVSLTPFQSSGLDTSRTTRHHGLVDRVYRERGRLGSPHRRPLSVDKHGRQADSCPYGTMYLSPPADTSWRRTNSDSALHQSTMTPTQPESFSSGSQDVHQKRVLLLTVPGMEETTSEADKNLSKQAWDTKKTGSRPKSCEVPGINIFPSADQENTTALIPATHNTGGSLPDLTNIHFPSPLPTPLDPEEPTFPALSSSSSTGNLAANLTHLGIGGAGQGMSTPGSSPQHRPAGVSPLSLSTEARRQQASPTLSPLSPITQAVAMDALSLEQQLPYAFFTQAGSQQPPPQPQPPPPPPPASQQPPPPPPPQAPVRLPPGGPLLPSASLTRGPQPPPLAVTVPSSLPQSPPENPGQPSMGIDIASAPALQQYRTSAGSPANQSPTSPVSNQGFSPGSSPQHTSTLGSVFGDAYYEQQMAARQANALSHQLEQFNMMENAISSSSLYSPGSTLNYSQAAMMGLTGSHGSLPDSQQLGYASHSGIPNIILTVTGESPPSLSKELTSSLAGVGDVSFDSDSQFPLDELKIDPLTLDGLHMLNDPDMVLADPATEDTFRMDRL
modifications: human
On to B1, for which the “activation of the ATF2-GAL4 fusion molecule” value is reported as “unable to activate”.
